We go through seven molecules from patent US20140087995A1 (published 2014).

Numbered stars: 1 amine (or outer) side, 2 acyl side, 3 side chain; on linkers, the order of the positions; unused ones are H or OH. Bridge positions count the residues as written; N and C are the ends. Side chains are listed from the residue outwards. Ends that are not written are not given here. * marks the point of attachment. C20 diacid = O=C(O)CCCCCCCCCCCCCCCCCCC(=O)*; γGlu = O=C(O)[C@H](CCC(=O)[*:2])N[*:1]

Sequences and labels used below:
T1: human calcitonin receptor (human, UniProt P30988 25-474)
T1 construct: whole, on cells; Assay used cell membranes, not intact cells; also called hCTR; hCT
T1 sequence (looked up): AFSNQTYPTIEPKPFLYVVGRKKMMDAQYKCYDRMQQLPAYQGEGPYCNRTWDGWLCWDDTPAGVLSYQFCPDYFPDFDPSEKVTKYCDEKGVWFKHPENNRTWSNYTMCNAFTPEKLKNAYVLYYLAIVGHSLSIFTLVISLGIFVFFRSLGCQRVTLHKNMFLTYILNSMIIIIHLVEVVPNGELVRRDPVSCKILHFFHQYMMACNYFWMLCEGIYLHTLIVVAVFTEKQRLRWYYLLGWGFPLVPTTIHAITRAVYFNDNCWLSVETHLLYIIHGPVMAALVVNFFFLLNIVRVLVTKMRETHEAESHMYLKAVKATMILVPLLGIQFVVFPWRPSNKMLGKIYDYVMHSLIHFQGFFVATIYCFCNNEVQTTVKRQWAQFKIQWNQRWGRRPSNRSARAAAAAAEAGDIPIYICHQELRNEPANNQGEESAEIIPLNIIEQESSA

T2: human amylin receptor (amylin 3(a) receptor: human calcitonin receptor with RAMP-3) (human, UniProt P30988 25-474; O60896 24-148)
T2 construct: whole, on cells; Assay used cell membranes of the Amylin 3(a)/CRE-luc BHK cells, not intact cells; also called hAmylin-R; hAmylinR
T2 sequence (looked up) 1: T1 sequence (looked up)
T2 sequence (looked up) 2: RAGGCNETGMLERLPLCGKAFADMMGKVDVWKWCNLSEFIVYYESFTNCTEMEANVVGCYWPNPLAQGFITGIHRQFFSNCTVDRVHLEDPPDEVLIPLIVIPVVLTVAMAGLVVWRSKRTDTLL

B1: N^ε1-[(4S)-4-carboxy-4-[[(4S)-4-carboxy-4-(19-carboxynonadecanoylamino)butanoyl]amino]butanoyl]-[Glu14,Arg17,Pro21,Pro27,His34]-h-amylin (peptide)
peptide: K([γGlu-γGlu-C20 diacid])CNTATCATQRLAEFLRHSSPNFGAIPSSTNVGHNTY-NH2
modifications: disulfide 2-7; N-terminus assumed
SMILES: CC[C@H](C)[C@H](NC(=O)[C@H](C)NC(=O)CNC(=O)[C@H](Cc1ccccc1)NC(=O)[C@H](CC(N)=O)NC(=O)[C@@H]1CCCN1C(=O)[C@H](CO)NC(=O)[C@H](CO)NC(=O)[C@H](Cc1c[nH]cn1)NC(=O)[C@H](CCCNC(=N)N)NC(=O)[C@H](CC(C)C)NC(=O)[C@H](Cc1ccccc1)NC(=O)[C@H](CCC(=O)O)NC(=O)[C@H](C)NC(=O)[C@H](CC(C)C)NC(=O)[C@H](CCCNC(=N)N)NC(=O)[C@H](CCC(N)=O)NC(=O)[C@@H](NC(=O)[C@H](C)NC(=O)[C@@H]1CSSC[C@H](NC(=O)[C@@H](N)CCCCNC(=O)CC[C@H](NC(=O)CC[C@H](NC(=O)CCCCCCCCCCCCCCCCCCC(=O)O)C(=O)O)C(=O)O)C(=O)N[C@@H](CC(N)=O)C(=O)N[C@@H]([C@@H](C)O)C(=O)N[C@@H](C)C(=O)N[C@@H]([C@@H](C)O)C(=O)N1)[C@@H](C)O)C(=O)N1CCC[C@H]1C(=O)N[C@@H](CO)C(=O)N[C@@H](CO)C(=O)N[C@H](C(=O)N[C@@H](CC(N)=O)C(=O)N[C@H](C(=O)NCC(=O)N[C@@H](Cc1c[nH]cn1)C(=O)N[C@@H](CC(N)=O)C(=O)N[C@H](C(=O)N[C@@H](Cc1ccc(O)cc1)C(N)=O)[C@@H](C)O)C(C)C)[C@@H](C)O
notes: also called compound 87
B2: N^ε1-[(4S)-4-carboxy-4-[[(4S)-4-carboxy-4-(19-carboxynonadecanoylamino)butanoyl]amino]butanoyl]-[Ser14,Arg17,Pro21,Pro27,Pro34,Glu35]-h-amylin (peptide)
peptide: K([γGlu-γGlu-C20 diacid])CNTATCATQRLASFLRHSSPNFGAIPSSTNVGPETY-NH2
modifications: disulfide 2-7; N-terminus assumed
SMILES: CC[C@H](C)[C@H](NC(=O)[C@H](C)NC(=O)CNC(=O)[C@H](Cc1ccccc1)NC(=O)[C@H](CC(N)=O)NC(=O)[C@@H]1CCCN1C(=O)[C@H](CO)NC(=O)[C@H](CO)NC(=O)[C@H](Cc1c[nH]cn1)NC(=O)[C@H](CCCNC(=N)N)NC(=O)[C@H](CC(C)C)NC(=O)[C@H](Cc1ccccc1)NC(=O)[C@H](CO)NC(=O)[C@H](C)NC(=O)[C@H](CC(C)C)NC(=O)[C@H](CCCNC(=N)N)NC(=O)[C@H](CCC(N)=O)NC(=O)[C@@H](NC(=O)[C@H](C)NC(=O)[C@@H]1CSSC[C@H](NC(=O)[C@@H](N)CCCCNC(=O)CC[C@H](NC(=O)CC[C@H](NC(=O)CCCCCCCCCCCCCCCCCCC(=O)O)C(=O)O)C(=O)O)C(=O)N[C@@H](CC(N)=O)C(=O)N[C@@H]([C@@H](C)O)C(=O)N[C@@H](C)C(=O)N[C@@H]([C@@H](C)O)C(=O)N1)[C@@H](C)O)C(=O)N1CCC[C@H]1C(=O)N[C@@H](CO)C(=O)N[C@@H](CO)C(=O)N[C@H](C(=O)N[C@@H](CC(N)=O)C(=O)N[C@H](C(=O)NCC(=O)N1CCC[C@H]1C(=O)N[C@@H](CCC(=O)O)C(=O)N[C@H](C(=O)N[C@@H](Cc1ccc(O)cc1)C(N)=O)[C@@H](C)O)C(C)C)[C@@H](C)O
notes: also called compound 120
B3: N^ε1-[(4S)-4-carboxy-4-[[(4S)-4-carboxy-4-(19-carboxynonadecanoylamino)butanoyl]amino]butanoyl]-[Glu14,Arg17,Pro21,Pro31,Pro34,Glu35]-h-amylin (peptide)
peptide: K([γGlu-γGlu-C20 diacid])CNTATCATQRLAEFLRHSSPNFGAILSSTPVGPETY-NH2
modifications: disulfide 2-7 (inferred)
B4: N^ε1-[(4S)-4-carboxy-4-[[(4S)-4-carboxy-4-(19-carboxynonadecanoylamino)butanoyl]amino]butanoyl]-[His14,Arg17,Pro21,Pro27]-h-amylin (peptide)
peptide: K([γGlu-γGlu-C20 diacid])CNTATCATQRLAHFLRHSSPNFGAIPSSTNVGSNTY-NH2
modifications: disulfide 2-7; N-terminus assumed
SMILES: CC[C@H](C)[C@H](NC(=O)[C@H](C)NC(=O)CNC(=O)[C@H](Cc1ccccc1)NC(=O)[C@H](CC(N)=O)NC(=O)[C@@H]1CCCN1C(=O)[C@H](CO)NC(=O)[C@H](CO)NC(=O)[C@H](Cc1c[nH]cn1)NC(=O)[C@H](CCCNC(=N)N)NC(=O)[C@H](CC(C)C)NC(=O)[C@H](Cc1ccccc1)NC(=O)[C@H](Cc1c[nH]cn1)NC(=O)[C@H](C)NC(=O)[C@H](CC(C)C)NC(=O)[C@H](CCCNC(=N)N)NC(=O)[C@H](CCC(N)=O)NC(=O)[C@@H](NC(=O)[C@H](C)NC(=O)[C@@H]1CSSC[C@H](NC(=O)[C@@H](N)CCCCNC(=O)CC[C@H](NC(=O)CC[C@H](NC(=O)CCCCCCCCCCCCCCCCCCC(=O)O)C(=O)O)C(=O)O)C(=O)N[C@@H](CC(N)=O)C(=O)N[C@@H]([C@@H](C)O)C(=O)N[C@@H](C)C(=O)N[C@@H]([C@@H](C)O)C(=O)N1)[C@@H](C)O)C(=O)N1CCC[C@H]1C(=O)N[C@@H](CO)C(=O)N[C@@H](CO)C(=O)N[C@H](C(=O)N[C@@H](CC(N)=O)C(=O)N[C@H](C(=O)NCC(=O)N[C@@H](CO)C(=O)N[C@@H](CC(N)=O)C(=O)N[C@H](C(=O)N[C@@H](Cc1ccc(O)cc1)C(N)=O)[C@@H](C)O)C(C)C)[C@@H](C)O
notes: also called compound 92
B5: N^ε1-[(4S)-4-carboxy-4-[[(4S)-4-carboxy-4-(19-carboxynonadecanoylamino)butanoyl]amino]butanoyl]-[Glu14,Arg17,Pro21,Pro27,Pro34,His35]-h-amylin (peptide)
peptide: K([γGlu-γGlu-C20 diacid])CNTATCATQRLAEFLRHSSPNFGAIPSSTNVGPHTY-NH2
modifications: disulfide 2-7 (inferred)
B6: N^ε1-[(4S)-4-carboxy-4-[[(4S)-4-carboxy-4-(19-carboxynonadecanoylamino)butanoyl]amino]butanoyl]-[Glu14,Arg17,Pro21,Pro27,Pro34,Arg35]-h-amylin (peptide)
peptide: K([γGlu-γGlu-C20 diacid])CNTATCATQRLAEFLRHSSPNFGAIPSSTNVGPRTY-NH2
modifications: disulfide 2-7; N-terminus assumed
SMILES: CC[C@H](C)[C@H](NC(=O)[C@H](C)NC(=O)CNC(=O)[C@H](Cc1ccccc1)NC(=O)[C@H](CC(N)=O)NC(=O)[C@@H]1CCCN1C(=O)[C@H](CO)NC(=O)[C@H](CO)NC(=O)[C@H](Cc1c[nH]cn1)NC(=O)[C@H](CCCNC(=N)N)NC(=O)[C@H](CC(C)C)NC(=O)[C@H](Cc1ccccc1)NC(=O)[C@H](CCC(=O)O)NC(=O)[C@H](C)NC(=O)[C@H](CC(C)C)NC(=O)[C@H](CCCNC(=N)N)NC(=O)[C@H](CCC(N)=O)NC(=O)[C@@H](NC(=O)[C@H](C)NC(=O)[C@@H]1CSSC[C@H](NC(=O)[C@@H](N)CCCCNC(=O)CC[C@H](NC(=O)CC[C@H](NC(=O)CCCCCCCCCCCCCCCCCCC(=O)O)C(=O)O)C(=O)O)C(=O)N[C@@H](CC(N)=O)C(=O)N[C@@H]([C@@H](C)O)C(=O)N[C@@H](C)C(=O)N[C@@H]([C@@H](C)O)C(=O)N1)[C@@H](C)O)C(=O)N1CCC[C@H]1C(=O)N[C@@H](CO)C(=O)N[C@@H](CO)C(=O)N[C@H](C(=O)N[C@@H](CC(N)=O)C(=O)N[C@H](C(=O)NCC(=O)N1CCC[C@H]1C(=O)N[C@@H](CCCNC(=N)N)C(=O)N[C@H](C(=O)N[C@@H](Cc1ccc(O)cc1)C(N)=O)[C@@H](C)O)C(C)C)[C@@H](C)O
notes: also called compound 110
B7: N^-1-[(4S)-4-carboxy-4-(19-carboxynonadecanoylamino)butanoyl]-Gly[Arg1,His14,Arg17,Pro21,Pro27,His34]-h-amylin (peptide)
peptide: {C20 diacid-γGlu}-GRCNTATCATQRLAHFLRHSSPNFGAIPSSTNVGHNTY-NH2
modifications: disulfide 3-8
SMILES: CC[C@H](C)[C@H](NC(=O)[C@H](C)NC(=O)CNC(=O)[C@H](Cc1ccccc1)NC(=O)[C@H](CC(N)=O)NC(=O)[C@@H]1CCCN1C(=O)[C@H](CO)NC(=O)[C@H](CO)NC(=O)[C@H](Cc1c[nH]cn1)NC(=O)[C@H](CCCNC(=N)N)NC(=O)[C@H](CC(C)C)NC(=O)[C@H](Cc1ccccc1)NC(=O)[C@H](Cc1c[nH]cn1)NC(=O)[C@H](C)NC(=O)[C@H](CC(C)C)NC(=O)[C@H](CCCNC(=N)N)NC(=O)[C@H](CCC(N)=O)NC(=O)[C@@H](NC(=O)[C@H](C)NC(=O)[C@@H]1CSSC[C@H](NC(=O)[C@H](CCCNC(=N)N)NC(=O)CNC(=O)CC[C@H](NC(=O)CCCCCCCCCCCCCCCCCCC(=O)O)C(=O)O)C(=O)N[C@@H](CC(N)=O)C(=O)N[C@@H]([C@@H](C)O)C(=O)N[C@@H](C)C(=O)N[C@@H]([C@@H](C)O)C(=O)N1)[C@@H](C)O)C(=O)N1CCC[C@H]1C(=O)N[C@@H](CO)C(=O)N[C@@H](CO)C(=O)N[C@H](C(=O)N[C@@H](CC(N)=O)C(=O)N[C@H](C(=O)NCC(=O)N[C@@H](Cc1c[nH]cn1)C(=O)N[C@@H](CC(N)=O)C(=O)N[C@H](C(=O)N[C@@H](Cc1ccc(O)cc1)C(N)=O)[C@@H](C)O)C(C)C)[C@@H](C)O
notes: also called compound 100

The first assay has as its target T1, human calcitonin receptor. In words: ratio IC50 hCTR / IC50 hAmylin-R (reference: human amylin receptor), SPA competition assays. In outline:
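Scintillation proximity competition binding on cell membranes at 35 ng/μL with SPA beads, in 50 mM Hepes pH 7.4, 1 mM CaCl2, 5 mM MgCl₂, 0.1% OA, 0.02% Tween20. Incubated 120 min at 25° C with shaking. IC₅₀ from one-site competition fit.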
Turning to B1, the “Ratio hCT/hAmylin binding” value turned out to be 35.6.
Still for that read-out and setting: the result for B2 reads 45.3.
On the same count and under the same terms, the result for B3 reads 22.6; that for B4, 145; that for B5, 27.3.
Still for that read-out and setting: the result for B6 reads 53.6; that for B7, 65.3.

A further assay addresses T1, human calcitonin receptor. As to the kind of experiment: SPA competition with 125I-calcitonin on membranes of BHK cells with human calcitonin receptor (Assay VII). Put shortly:
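BHK hCTR membranes 35 ng/μL + SPA beads 0.05 mg/well; buffer 50 mM Hepes pH 7.4, 1 mM CaCl2, 5 mM MgCl₂, 0.1% OA, 0.02% Tween20. 120 min, 25° C., shaking. Scintillation count; IC50 by one-site binding competition.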
On to B1, for which the IC50 came to 22.5 nM.
Same read-out and setting: the figure for B2 is 3.44 nM.
Still for that read-out and setting: the figure for B3 is 1.56 nM.
On the same count and under the same terms, the figure for B4 is 26 nM.
Regarding B5, the concentration for half-maximal inhibition (IC50) stood at 10.3 nM.
As for B6, the IC50 stood at 17.5 nM.
For B7, the IC50 came to 66.3 nM.

In the next assay the target is T2, human amylin receptor (amylin 3(a) …). In words: SPA competition with 125I-rat amylin on membranes of BHK cells with human calcitonin receptor and RAMP-3 (Assay V). Put shortly: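 Membranes from BHK Amylin 3(a)/CRE-luc cells (35 ng/μL final) were mixed with SPA beads and test compounds in 50 mM Hepes pH 7.4 with 1 mM CaCl2, 5 mM MgCl₂, 0.1% OA and 0.02% Tween20. Incubation ran 120 min at 25° C with shaking; IC₅₀ came from one-site competition fitting.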
Consider B1, for which the IC50 is 0.633 nM.
Still for that read-out and setting: the figure for B2 is 0.076 nM.
The same measure, in the same setting: the result for B3 reads 0.069 nM.
Consider B4, for which the IC50 stood at 0.179 nM.
For the molecule B5, the IC50 came to 0.377 nM.
On the same count and under the same terms, the result for B6 reads 0.326 nM; that for B7, 1.01 nM.

As a reminder, the IC50 is the concentration that inhibits the measured activity by half.
